For this series, the system named is Escherichia coli TOP10. The experiment in a line: shrunken log2 fold change of peptide-encoding DNA abundance (4.5 h post-induction vs induction); higher = less antimicrobial activity (less host growth inhibition). As to conditions: time post-induction: 4.5 h; library: site-saturation at positions 5, 18, 19, 20.
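Note: peptides expressed intracellularly from a pBAD plasmid library in pooled LB shake-flask culture, induced with 0.3% L-arabinose, DNA abundance read by NGS, three biological replicates, DESeq2 with apeglm shrinkage.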

Take RRIRWRPPRLPRPRPRPPPHPRP: the “shrunken log2 fold change” value is 0.721.
As to RRIRRRPPRLPRPRPRPTKRPRP, the “shrunken log2 fold change” value worked out at 0.145.
As to RRIRTRPPRLPRPRPRPDRKPRP, the “shrunken log2 fold change” value was determined as 0.00258.
The result for RRIRGRPPRLPRPRPRPMRHPRP reads 0.559; that for RRIRARPPRLPRPRPRPGYYPRP, -0.254; that for RRIRCRPPRLPRPRPRPDIQPRP, -0.268.
Consider RRIRTRPPRLPRPRPRPHQVPRP, for which the “shrunken log2 fold change” value was -0.0174.
In the case of RRIRVRPPRLPRPRPRPFMAPRP, the “shrunken log2 fold change” value was -0.128.
In the case of RRIRNRPPRLPRPRPRPSCDPRP, the “shrunken log2 fold change” value was -0.179.
Turning to RRIRWRPPRLPRPRPRPYHNPRP, the “shrunken log2 fold change” value was -0.296.
The result for RRIRFRPPRLPRPRPRPPYAPRP reads 0.0335; that for RRIRRRPPRLPRPRPRPPQGPRP, 0.856; that for RRIRSRPPRLPRPRPRPWAPPRP, 0.0324.
For the sequence RRIRYRPPRLPRPRPRPQYEPRP, the “shrunken log2 fold change” value is -0.565.
RRIRHRPPRLPRPRPRPMYPPRP: the “shrunken log2 fold change” value is -0.304.
As to RRIRIRPPRLPRPRPRPYQWPRP, the “shrunken log2 fold change” value is -0.316.
With RRIRCRPPRLPRPRPRPACTPRP, the “shrunken log2 fold change” value was -0.00637.
Consider RRIRERPPRLPRPRPRPWHHPRP, for which the “shrunken log2 fold change” value is -0.326.
In the case of RRIRDRPPRLPRPRPRPPQSPRP it was 0.613.
The result for RRIRTRPPRLPRPRPRPLFQPRP reads -0.348; that for RRIRCRPPRLPRPRPRPFRCPRP, -0.0165; that for RRIRMRPPRLPRPRPRPCNYPRP, 0.0171.
As for RRIRMRPPRLPRPRPRPYVRPRP, the “shrunken log2 fold change” value was -0.313.
In the case of RRIRPRPPRLPRPRPRPTPSPRP it was 0.312; in that of RRIRTRPPRLPRPRPRPEWNPRP, -0.05.
For RRIRHRPPRLPRPRPRPILLPRP, the “shrunken log2 fold change” value was -0.211.
For RRIRMRPPRLPRPRPRPLNAPRP, the “shrunken log2 fold change” value is 0.35.
Turning to RRIRQRPPRLPRPRPRPYTPPRP, the “shrunken log2 fold change” value was -0.856.
In the case of RRIRERPPRLPRPRPRPGPMPRP it was 0.224.
In the case of RRIRMRPPRLPRPRPRPAWSPRP it was 0.44; in that of RRIRTRPPRLPRPRPRPFISPRP, -0.0743.
As for RRIRERPPRLPRPRPRPFEDPRP, the “shrunken log2 fold change” value is -0.0547.
On to RRIRGRPPRLPRPRPRPQVHPRP, for which the “shrunken log2 fold change” value stood at 0.231.
Turning to RRIRPRPPRLPRPRPRPFCVPRP, the “shrunken log2 fold change” value was 0.156.
As for RRIRLRPPRLPRPRPRPCSAPRP, the “shrunken log2 fold change” value was -0.372.
In the case of RRIRYRPPRLPRPRPRPPPAPRP it was 0.878; in that of RRIRQRPPRLPRPRPRPNPNPRP, -0.0129; in that of RRIRARPPRLPRPRPRPQEIPRP, 0.107.
With RRIRGRPPRLPRPRPRPIEDPRP, the “shrunken log2 fold change” value was 0.0783.
Regarding RRIRPRPPRLPRPRPRPEKVPRP, the “shrunken log2 fold change” value was -0.127.
With RRIRHRPPRLPRPRPRPTGRPRP, the “shrunken log2 fold change” value is -0.089.
Consider RRIRWRPPRLPRPRPRPDPIPRP, for which the “shrunken log2 fold change” value is -0.242.
Turning to RRIRIRPPRLPRPRPRPEDYPRP, the “shrunken log2 fold change” value is -0.0393.
Regarding RRIRYRPPRLPRPRPRPRRSPRP, the “shrunken log2 fold change” value was -0.0446.
The result for RRIRNRPPRLPRPRPRPDPLPRP reads -0.0328.
Take RRIRSRPPRLPRPRPRPQCIPRP: the “shrunken log2 fold change” value is -1.27.
On to RRIRIRPPRLPRPRPRPRWHPRP, for which the “shrunken log2 fold change” value came to 0.139.
With RRIRARPPRLPRPRPRPCIGPRP, the “shrunken log2 fold change” value was found to be 0.0942.
In the case of RRIRDRPPRLPRPRPRPECPPRP it was 0.0118; in that of RRIRQRPPRLPRPRPRPQFTPRP, -0.177; in that of RRIRVRPPRLPRPRPRPYPQPRP, -0.349.
On to RRIRRRPPRLPRPRPRPLFIPRP, for which the “shrunken log2 fold change” value is -0.27.
On to RRIRFRPPRLPRPRPRPMMTPRP, for which the “shrunken log2 fold change” value was 0.022.
The result for RRIRMRPPRLPRPRPRPHFLPRP reads -0.235; that for RRIRHRPPRLPRPRPRPSKIPRP, -0.517; that for RRIRHRPPRLPRPRPRPMWTPRP, -0.126.
In the case of RRIRQRPPRLPRPRPRPNVPPRP it was -0.0402; in that of RRIRQRPPRLPRPRPRPSVIPRP, -0.656.
On to RRIRVRPPRLPRPRPRPTQIPRP, for which the “shrunken log2 fold change” value stood at 0.149.
Regarding RRIRDRPPRLPRPRPRPHSKPRP, the “shrunken log2 fold change” value is -0.456.
In the case of RRIRCRPPRLPRPRPRPYWAPRP it was -1.21; in that of RRIRVRPPRLPRPRPRPDDFPRP, 0.0492; in that of RRIRLRPPRLPRPRPRPYLYPRP, -0.164.
Regarding RRIRARPPRLPRPRPRPTRPPRP, the “shrunken log2 fold change” value came out at 0.764.
Take RRIRVRPPRLPRPRPRPNDMPRP: the “shrunken log2 fold change” value is -0.337.
With RRIRPRPPRLPRPRPRPVIWPRP, the “shrunken log2 fold change” value was -0.0495.
Turning to RRIRDRPPRLPRPRPRPKNVPRP, the “shrunken log2 fold change” value is -0.0304.
For RRIRSRPPRLPRPRPRPWAYPRP, the “shrunken log2 fold change” value was -0.107.
For the sequence RRIRQRPPRLPRPRPRPDGCPRP, the “shrunken log2 fold change” value was -0.103.
RRIRGRPPRLPRPRPRPMFCPRP: the “shrunken log2 fold change” value was determined as 0.178.
As for RRIRLRPPRLPRPRPRPKSYPRP, the “shrunken log2 fold change” value was -0.592.
Take RRIRRRPPRLPRPRPRPQNFPRP: the “shrunken log2 fold change” value is -0.149.
With RRIRMRPPRLPRPRPRPLCHPRP, the “shrunken log2 fold change” value was 0.061.
In the case of RRIRCRPPRLPRPRPRPGDCPRP, the “shrunken log2 fold change” value was found to be 0.0297.
As to RRIRWRPPRLPRPRPRPLANPRP, the “shrunken log2 fold change” value amounted to 0.552.
Consider RRIRPRPPRLPRPRPRPEYIPRP, for which the “shrunken log2 fold change” value was -0.0411.
In the case of RRIRRRPPRLPRPRPRPYLFPRP it was -0.305; in that of RRIRLRPPRLPRPRPRPLKGPRP, -0.0279; in that of RRIRCRPPRLPRPRPRPAAVPRP, 0.346.
The result for RRIRKRPPRLPRPRPRPQMIPRP reads -0.14.
On to RRIRHRPPRLPRPRPRPCWYPRP, for which the “shrunken log2 fold change” value is -0.0677.
Regarding RRIRRRPPRLPRPRPRPTKIPRP, the “shrunken log2 fold change” value worked out at 0.0521.
In the case of RRIRERPPRLPRPRPRPIEHPRP, the “shrunken log2 fold change” value was -0.00973.
As to RRIRMRPPRLPRPRPRPMTGPRP, the “shrunken log2 fold change” value is 0.0472.
For RRIRERPPRLPRPRPRPNWCPRP, the “shrunken log2 fold change” value was -0.0117.
In the case of RRIRMRPPRLPRPRPRPMAPPRP it was 0.218; in that of RRIRDRPPRLPRPRPRPTVLPRP, 0.306.
As to RRIRWRPPRLPRPRPRPYPAPRP, the “shrunken log2 fold change” value is -0.0239.
As to RRIRGRPPRLPRPRPRPAGQPRP, the “shrunken log2 fold change” value is 0.727.
As to RRIRGRPPRLPRPRPRPQYAPRP, the “shrunken log2 fold change” value was 0.285.
In the case of RRIRSRPPRLPRPRPRPLRHPRP it was 0.375.
As for RRIRCRPPRLPRPRPRPFAQPRP, the “shrunken log2 fold change” value turned out to be 0.00363.
Regarding RRIRWRPPRLPRPRPRPCIGPRP, the “shrunken log2 fold change” value is -0.148.
As for RRIRIRPPRLPRPRPRPQSWPRP, the “shrunken log2 fold change” value was -0.0752.
RRIRGRPPRLPRPRPRPKQLPRP: the “shrunken log2 fold change” value was -0.00285.
On to RRIRPRPPRLPRPRPRPEQIPRP, for which the “shrunken log2 fold change” value worked out at 0.0118.
As to RRIRARPPRLPRPRPRPGDMPRP, the “shrunken log2 fold change” value was 0.374.
As for RRIRERPPRLPRPRPRPACRPRP, the “shrunken log2 fold change” value was found to be 0.392.
With RRIRQRPPRLPRPRPRPRNAPRP, the “shrunken log2 fold change” value was 0.483.
The result for RRIRGRPPRLPRPRPRPEWDPRP reads 1.56; that for RRIRVRPPRLPRPRPRPKCPPRP, 0.0181; that for RRIRDRPPRLPRPRPRPFMRPRP, 0.05.
RRIRCRPPRLPRPRPRPKYAPRP: the “shrunken log2 fold change” value was -0.0494.
As for RRIRVRPPRLPRPRPRPNWQPRP, the “shrunken log2 fold change” value amounted to 0.108.
As to RRIRVRPPRLPRPRPRPEGTPRP, the “shrunken log2 fold change” value was -0.00568.
As to RRIRCRPPRLPRPRPRPQWMPRP, the “shrunken log2 fold change” value was -0.0314.
In the case of RRIRFRPPRLPRPRPRPIQLPRP, the “shrunken log2 fold change” value is -0.336.
In the case of RRIRDRPPRLPRPRPRPFLWPRP, the “shrunken log2 fold change” value was 0.625.
In the case of RRIRGRPPRLPRPRPRPNAQPRP it was 0.836; in that of RRIRGRPPRLPRPRPRPGQQPRP, 0.0088.
The result for RRIRIRPPRLPRPRPRPEPIPRP reads 0.185; that for RRIRWRPPRLPRPRPRPCNVPRP, -0.00213.
Turning to RRIRDRPPRLPRPRPRPPLVPRP, the “shrunken log2 fold change” value was found to be 0.194.
The result for RRIRPRPPRLPRPRPRPHAFPRP reads 0.0176; that for RRIRCRPPRLPRPRPRPVLHPRP, -0.199.
In the case of RRIRYRPPRLPRPRPRPVPHPRP it was -0.262; in that of RRIRQRPPRLPRPRPRPGAAPRP, 0.553; in that of RRIRMRPPRLPRPRPRPFWCPRP, 0.314.
RRIRMRPPRLPRPRPRPFSIPRP: the “shrunken log2 fold change” value was -0.11.
RRIRIRPPRLPRPRPRPYDRPRP: the “shrunken log2 fold change” value is -0.499.
For RRIRFRPPRLPRPRPRPKSSPRP, the “shrunken log2 fold change” value is -0.103.
The result for RRIRNRPPRLPRPRPRPFPTPRP reads 0.00541; that for RRIRFRPPRLPRPRPRPIIGPRP, -0.024.
As for RRIRYRPPRLPRPRPRPCRCPRP, the “shrunken log2 fold change” value was -0.0894.
Regarding RRIRTRPPRLPRPRPRPCYRPRP, the “shrunken log2 fold change” value is -0.0575.

These data come from the supplement of paper PMC9112550, “Optimization of the antimicrobial peptide Bac7 by deep mutational scanning” (BMC Biology, 2022).
